Changes are numbered by the printed parent chain.
Experiments:
[1] = target: T1, human CD39 (NTPDase1, ENTPD1), membrane-bound, on cells (human, UniProt P49961 1-510); assay: flow cytometry on Ramos lymphoma cells, first set of experiments
T1 construct: Expressed on CHO cells, Hek-293T cells (wild type) or endogenous on Ramos cells; also called huCD39; CHO-huCD39
T1 sequence: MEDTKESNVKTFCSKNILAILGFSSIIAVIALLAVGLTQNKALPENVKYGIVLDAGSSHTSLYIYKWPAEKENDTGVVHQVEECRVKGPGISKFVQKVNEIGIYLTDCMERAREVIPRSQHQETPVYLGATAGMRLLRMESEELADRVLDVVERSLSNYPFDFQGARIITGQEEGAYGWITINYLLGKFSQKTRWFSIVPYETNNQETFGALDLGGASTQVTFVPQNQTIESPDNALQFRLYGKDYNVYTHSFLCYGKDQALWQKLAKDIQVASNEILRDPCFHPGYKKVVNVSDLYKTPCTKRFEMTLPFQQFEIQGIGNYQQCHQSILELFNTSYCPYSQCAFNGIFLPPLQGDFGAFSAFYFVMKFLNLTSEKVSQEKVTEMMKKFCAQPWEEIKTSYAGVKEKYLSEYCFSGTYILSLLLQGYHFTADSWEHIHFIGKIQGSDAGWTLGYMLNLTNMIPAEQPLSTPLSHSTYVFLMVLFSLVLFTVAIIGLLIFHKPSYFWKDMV
Experimental: (§1) Cells were incubated with various concentration of unlabeled anti-CD39 antibody from 30 μg/ml to 5×10⁻⁴ μg/ml, for 30 minutes at 4° C. After washes, cells were incubated with Goat anti-mouse H+L labeled secondary antibody for 30 min at 4° C.

[2] = target: T1, human CD39 (NTPDase1, ENTPD1), …; assay: flow cytometry titration on CHO cells expressing human CD39 (panel CHO-huCD39)
Experimental: as §1

[3] = target: T2, cynomolgus (macaca fascicularis) CD39 on CHO cells (cynomolgus (macaca fascicularis), UniProt A0A7N9DGH8 1-510); assay: flow cytometry titration on CHO cells expressing cynomolgus CD39 (panel CHO-cyCD39)
T2 construct: whole, on cells; also called CHO-cyCD39; cynomolgus CD39
T2 sequence: T1 sequence with V47I, F94Y, V221I, I230T, I329V, K368N, A391S, F489V, T490I
Experimental: as §1

CD39 mutant 5 = target: T3, CD39 mutant 5 (human, UniProt P49961 1-510); assay: flow cytometry, Hek-293T cells transfected with CD39 mutant 5 (panel M5), Comp-Alexa Fluor 647-A
T3 construct: Expressed on Hek-293T cells; also called M5
T3 chain: T1 sequence with Q96A, N99A, E143A, R147E
Experimental: (§2) Mutants were transfected in Hek-293T cells, as shown in the table 1, using numbering of SEQ ID NO: 2. […] Mutant 19 includes substitutions at residues R138, M139 and E142.
(§3) Mutants were transfected in Hek-293T cells, as shown in the table 1, using numbering of SEQ ID NO: 2. Dose-ranges of test antibodies (10-2.5-0.625-0.1563-0.0391-0.0098-0.0024-0.0006 μg/ml) are tested on the 20 generated mutants by flow cytometry.

CD39 mutant 19 = target: T4, CD39 mutant 19 (human, UniProt P49961 1-510); assay: flow cytometry, Hek-293T cells transfected with CD39 mutant 19 (panel M19); antibody concentration not shown
T4 construct: Expressed on Hek-293T cells; also called M19
T4 chain: T1 sequence with R138A, M139A, E142K
Experimental: as §2, §3

B1: antibody I-394 (antibody, human IgG1, kappa, V domains shown)
VH: EVQLQQSGPELVKPGASVKMSCKASGYTFTDYNMHWVKQSHGRTLEWIGYIVPLNGGSTFNQKFKGRATLTVNTSSRTAYMELRSLTSEDSAAYYCARGGTRFAYWGQGTLVTVSA
VL: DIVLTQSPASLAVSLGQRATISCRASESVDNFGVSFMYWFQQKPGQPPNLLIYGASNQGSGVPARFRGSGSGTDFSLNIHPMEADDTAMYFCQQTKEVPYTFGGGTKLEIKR
[1]
  EC50: 0.16 mg/L
[2]
  EC50 (read off the curve): ~0.2 mg/L
[3]
  EC50 (read off the curve): ~0.4 mg/L
CD39 mutant 5
  binding result: binds
CD39 mutant 19
  binding result: no binding
